For orientation: Kd means the equilibrium constant for the complex coming apart. Low readings indicate higher affinity, high ones lower affinity.

The assay has as its target T1, MBP-8xHis-1SCC (semi-synthetic Ribonuclease, PDB ID 1SSC) (UniProt P61823 27-138).
T1 construct: also called psfRNAseA; psfRNAseA-c001; source: E. coli BL21 (DE3) T1R, purified (IMAC, size exclusion chromatography)
T1 sequence: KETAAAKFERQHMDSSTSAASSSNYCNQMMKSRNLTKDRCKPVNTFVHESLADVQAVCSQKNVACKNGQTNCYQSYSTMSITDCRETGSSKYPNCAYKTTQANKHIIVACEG
As to the kind of experiment: SPR; MBP-8xHis-1SCC immobilised to about 12000 RU by amine coupling (EDC/NHS) on a Series S CM5 chip, Biacore 8K; peptides as analytes, single-cycle kinetics (2, 10, 50 μM; or 3.125-50 μM in five steps); 25 °C; HBS-P+ (10 mM HEPES pH 7.4, 150 mM NaCl, 0.05% Tween-20); 30 μL/min, 120 s association, 1800 s dissociation; 1:1 binding model. Particulars: both partners purified. (Surface plasmon resonance follows binding to a sensor surface in real time, without labels.)

Where “and” joins values, the source holds several entries; their conditions need not be identical. Identical values can stand only once.

B1: known peptide binder (11 residues) of the semi-synthetic Ribonuclease (peptide)
peptide: PYVPVHFDASV
notes: C-terminal stretch of ribonuclease A, the peptide chain of PDB 1SSC; also called wildtype (WT) linear peptide; wild-type peptide; source: synthetic peptide
As to B1, the Kd is 35 nM and 25 nM.
